Results taken from patent US20090035322A1 (Regeneron, published 2009).
Where two headings read alike, the source gives them in different places.

T1: human CD20 (human, UniProt P11836 1-297)
T1 sequence: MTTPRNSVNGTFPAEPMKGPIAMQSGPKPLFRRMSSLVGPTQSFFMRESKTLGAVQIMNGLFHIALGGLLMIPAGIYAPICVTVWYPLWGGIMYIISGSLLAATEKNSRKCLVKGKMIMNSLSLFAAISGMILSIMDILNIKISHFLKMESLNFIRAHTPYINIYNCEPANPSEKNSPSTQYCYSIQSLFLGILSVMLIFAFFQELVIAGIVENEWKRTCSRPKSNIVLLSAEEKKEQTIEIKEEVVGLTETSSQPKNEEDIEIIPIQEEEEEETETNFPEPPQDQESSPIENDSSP

T2: mutant human CD20 #10 (A157V) (human, UniProt P11836 1-297)
T2 construct: Stably expressed on MG87 cells
T2 sequence: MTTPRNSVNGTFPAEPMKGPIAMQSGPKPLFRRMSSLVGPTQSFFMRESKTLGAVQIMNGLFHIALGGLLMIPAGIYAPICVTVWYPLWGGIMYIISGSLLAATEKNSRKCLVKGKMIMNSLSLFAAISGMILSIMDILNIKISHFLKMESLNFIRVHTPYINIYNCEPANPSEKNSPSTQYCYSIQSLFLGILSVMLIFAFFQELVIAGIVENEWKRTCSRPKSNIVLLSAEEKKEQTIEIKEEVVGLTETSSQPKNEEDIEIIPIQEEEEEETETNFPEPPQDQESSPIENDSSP

T3: mutant human CD20 #7 (Y77F, N163D) (human, UniProt P11836 1-297)
T3 construct: Stably expressed on MG87 cells
T3 chain: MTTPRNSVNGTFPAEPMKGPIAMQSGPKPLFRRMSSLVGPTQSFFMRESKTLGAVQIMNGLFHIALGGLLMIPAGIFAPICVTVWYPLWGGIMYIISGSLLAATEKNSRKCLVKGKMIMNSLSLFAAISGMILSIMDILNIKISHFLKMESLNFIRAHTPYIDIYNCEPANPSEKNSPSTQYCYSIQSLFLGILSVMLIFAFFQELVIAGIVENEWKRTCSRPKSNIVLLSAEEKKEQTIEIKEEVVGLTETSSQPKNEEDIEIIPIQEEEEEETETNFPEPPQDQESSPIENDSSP

T4: mutant human CD20 #2 (N163D) (human, UniProt P11836 1-297)
T4 construct: Stably expressed on MG87 cells
T4 sequence: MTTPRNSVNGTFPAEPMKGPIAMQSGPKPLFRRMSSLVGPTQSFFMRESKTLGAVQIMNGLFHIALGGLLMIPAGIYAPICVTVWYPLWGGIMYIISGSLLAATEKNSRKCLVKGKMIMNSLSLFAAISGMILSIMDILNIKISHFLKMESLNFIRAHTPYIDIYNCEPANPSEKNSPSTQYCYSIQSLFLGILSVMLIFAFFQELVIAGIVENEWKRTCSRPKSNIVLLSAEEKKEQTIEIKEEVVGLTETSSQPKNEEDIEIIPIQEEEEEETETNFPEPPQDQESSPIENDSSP

T5: mutant human CD20 #8 (Y77F, N163D, N166D) (human, UniProt P11836 1-297)
T5 construct: Stably expressed on MG87 cells
T5 chain: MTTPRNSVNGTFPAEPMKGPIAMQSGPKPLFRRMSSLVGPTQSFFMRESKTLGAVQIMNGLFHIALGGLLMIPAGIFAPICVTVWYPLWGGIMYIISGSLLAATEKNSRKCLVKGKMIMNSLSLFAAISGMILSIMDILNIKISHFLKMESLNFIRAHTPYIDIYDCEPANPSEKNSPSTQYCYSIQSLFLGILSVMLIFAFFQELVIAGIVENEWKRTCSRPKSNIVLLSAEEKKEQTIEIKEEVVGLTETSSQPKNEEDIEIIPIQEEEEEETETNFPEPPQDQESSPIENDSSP


Columns and labels:
human CD20 [1] = molecular target: T1, human CD20; test: cell-based or functional assay
[2] = molecular target: T2, mutant human CD20 #10 (A157V); test: FACS, mutant-hCD20 MG87 cells; 100%=best antibody
Experimental: (§1) Briefly, approximately 1×10⁶ cells from each stably transfected cell line expressing a mutant human CD20 were collected and incubated with each anti-human antibody, at 10 μg/ml, on ice for 1 hr, followed by incubation with APC-conjugated goat anti-human IgG (Jackson Immunolabs), at 10 μg/ml, on ice for 45 min. For each antibody, binding to each mutant human CD20 was assessed by flow cytometry.

[3] = molecular target: T3, mutant human CD20 #7 (Y77F, N163D); test: FACS, mutant-hCD20 MG87 cells; 100%=best antibody
Experimental: as §1

[4] = molecular target: T4, mutant human CD20 #2 (N163D); test: FACS, mutant-hCD20 MG87 cells; 100%=best antibody
Experimental: as §1

[5] = molecular target: T5, mutant human CD20 #8 (Y77F, N163D, …); test: FACS, mutant-hCD20 MG87 cells; 100%=best antibody
Experimental: as §1

human CD20 [6] = molecular target: T1, human CD20; test: cell-based or functional assay; remark: listed apart in the source
human CD20 [7] = molecular target: T1, human CD20; test: cell-based or functional assay; remark: listed apart in the source
human CD20 [8] = molecular target: T1, human CD20; test: cell-based or functional assay; remark: listed apart in the source

Binder	CDC, Daudi EC50 (human CD20 [1]) [nM]	CDC, RL EC50 (human CD20 [1]) [nM]	Percent of Binding to Mutant Human CD20 [2] [%]	Percent of Binding to Mutant Human CD20 [3] [%]	Percent of Binding to Mutant Human CD20 [4] [%]	Percent of Binding to Mutant Human CD20 [5] [%]	ADCC EC50 (pM), Daudi + PBMC (human CD20 [7]) [pM]	% Cytotoxicity (CDC, Daudi), 0 hour (human CD20 [6]) [%]	% Cytotoxicity (CDC, Daudi), 1 hour (human CD20 [6]) [%]	% Cytotoxicity (CDC, Daudi), 6 hour (human CD20 [6]) [%]	% Cytotoxicity (CDC, Daudi), 0 hour (human CD20 [8]) [%]	% Cytotoxicity (CDC, Daudi), 1 hour (human CD20 [8]) [%]	% Cytotoxicity (CDC, Daudi), 6 hour (human CD20 [8]) [%]
7E1-13 (antibody, V domains shown, Fully human IgG, constant region not specified; also called 7E1-13N) VH: EVQLVESGGGLVQPGRSLRLSCTASGFTFGDFPMHWVRQAPGKGLEWVSGITWNSGSIVYADSVKGRFTISRDNAKNSLYLQMNSLRTEDTALYYCAKDSHYGSGNFYYYYYGMDVWGQGTTVTVSS VL: not shown	1.59	5.81	92	1	49	0	2.14	98.1	98.5	89.3	–	–	–
2C11-4 (antibody, V domains shown, Fully human IgG, constant region not specified; also called 2C11-4N) VH: EVQLVESGGGLVQPGRSLRLSCAASGFTFRDYAMHWVRQGPGKGLEWVSGISWNTDYIGYADSVKGRFTISRDNAKNSLYLQMNSLRPEDTALYYCAKDARYGRDNYYGMDVWGQGTTVTVSS VL: EIVLTQSPATLSLSPGERATLSCRASQSVSRYLAWYQQKPGQAPRLLIHDASNRATGIPARFSGSGSGTDFTLTITSLEPEDFVVYYCQQRSDWPITFGQGTRLEIK	> 50	5.19	68	1	0	0	1.45	29.1	14	22.4	–	–	–
9H4-12 (antibody, V domains shown, Fully human IgG, constant region not specified; also called 9H4-12N) VH: EVQLVESGGGLVQPGRSLRLSCAASGFTFDDYAMHWVRQVPGKGLEWVSGISWNSGSIGYADSVKGRFTISRDNAKNSLYLQMNSLRAEDTALYYCAKDMGYGNYYHYGMDVWGQGTTVTVSS VL: DIVLTQSPATLSLSPGERATLSCRASQSVSSYLAWYQQKPGQAPRLLICDASHRATRIPARFSGSGSGTDFTLTISSLEPEDFAVYYCQQRSNWPITFGQGTRLEIK	51.1	29.6	52	2	0	0	33.8	43.2	17.4	23.1	–	–	–
3B9-10 (antibody, V domains shown, Fully human IgG, constant region not specified; also called 3B9-10N) VH: EVQLVESGGGLVQPGRSLRLSCVASGFTFNDYAMHWVRQAPGKGLEWVSVISWNSDSIGYADSVKGRFTISRDNAKNSLYLQMHSLRAEDTALYYCAKDNHYGSGSYYYYQYGMDVWGQGTTVTVSS VL: EIVMTQSPATLSVSPGERATLSCRASQSVSSNLAWYQQKPGQAPRLLIYGTSTRATGIPARFSGSGSGTEFTLTISSLQSEDFAVYYCQQYNNWPLTFGGGTKVEIK	1.86	8.84	79	1	6	0	6.77	98.4	97.9	82.2	–	–	–

More lines, main results first:

CDC, Daudi EC50 (human CD20 [1]) [nM]	CDC, RL EC50 (human CD20 [1]) [nM]	Percent of Binding to Mutant Human CD20 [2] [%]	Percent of Binding to Mutant Human CD20 [3] [%]	Percent of Binding to Mutant Human CD20 [4] [%]	Percent of Binding to Mutant Human CD20 [5] [%]	ADCC EC50 (pM), Daudi + PBMC (human CD20 [7]) [pM]	Binder	% Cytotoxicity (CDC, Daudi), 0 hour (human CD20 [6]) [%]	% Cytotoxicity (CDC, Daudi), 1 hour (human CD20 [6]) [%]	% Cytotoxicity (CDC, Daudi), 6 hour (human CD20 [6]) [%]	% Cytotoxicity (CDC, Daudi), 0 hour (human CD20 [8]) [%]	% Cytotoxicity (CDC, Daudi), 1 hour (human CD20 [8]) [%]	% Cytotoxicity (CDC, Daudi), 6 hour (human CD20 [8]) [%]
0.44	3.66	80	1	1	0	11.1	3H7-6 (antibody, V domains shown, Fully human IgG, constant region not specified; also called 3H7-6N) VH: EVQLVESGGGLVQPGRSLRLSCAASGFTFYDYAMHWVRQAPGKGLEWVSGISWNSGYIGYADSVKGRFTISRDNAKNSLYLQMNSLRAEDTALYYCAKDNSYGKFYYGLDVWGQGTTVTVSS VL: EIVMTQSPATLSVSPGERTTLSCRASQSVSSNLAWYLQKPGQAPRLLIYGASTRATGIPARFSGSGSGTEFILTISSLQSEDFAVYYCQQYNNWPITFGQGTRLEIK	–	–	–	97.5	94	67.6
2.22	11.1	77	1	0	0	11	9C3-8 (antibody, V domains shown, Fully human IgG, constant region not specified; also called 9C3-8N) VH: EVQLVESGGGLVQPGRSLRLSCAASGFSFHDYAMHWVRQAPGKGLEWVSGISWNSDSLGYADSVKGRFTISRDNAKNSLYLQMNSLRAEDTALYYCAKDNHYGSGSHYYYKYGMDVWGQGTTVTVSS VL: not shown	98.7	98.5	76.9	–	–	–
